Broadly, the Km is the substrate concentration at which the rate is half of its maximum. As a reminder, the kcat is the number of substrate molecules converted per active site and unit of time at saturation. Usually kcat/Km stands for the second-order rate constant that governs catalysis at low substrate concentration.

Among the data in article PMC7175128, “Rational Engineering of the Substrate Specificity of a Thermostable D-Hydantoinase (Dihydropyrimidinase)” (High-Throughput, 2020) are Km, kcat and kcat/Km values, retold here.

One data set has as its system T1, O=C1CCNC(=O)N1.
T1 construct: recombinant from pET-Hyd in E. coli BL21(DE3); 52 kDa; heat-treated, ultrafiltered, desalted
Description: purified protein. The class given is biochemical, Geobacillus stearothermophilus. The note with it: 0.1 M MOPS pH 8.0, 0.5 mM MnSO4, temperature of kinetics not stated (activity assays at 60 °C).

Data set [1] concerns T2, O=C1NC(=O)C(Cc2c[nH]c3ccccc23)N1.
T2 construct: recombinant from pET-Hyd in E. coli BL21(DE3); 52 kDa; heat-treated, ultrafiltered, desalted
Description: purified protein. The class given is biochemical, Geobacillus stearothermophilus. Particulars: 0.1 M MOPS pH 8.0, 0.5 mM MnSO4, temperature of kinetics not stated (activity assays at 60 °C).

Consider “D-hydantoinase (dihydropyrimidinase) of G. stearothermophilus ATCC 31783 (Geobacillus stearothermophilus)”, for which, in the data set on O=C1CCNC(=O)N1, the Km stood at 970 ± 220 µM, the kcat worked out at 11.2 ± 0.7 s⁻¹ and the kcat/Km stood at 11300 ± 2200 M⁻¹ s⁻¹.
For “D-hydantoinase (dihydropyrimidinase) of G. stearothermophilus ATCC 31783 (Geobacillus stearothermophilus; F159A)”, in the data set on O=C1CCNC(=O)N1, the Km was found to be 2890 ± 1270 µM, the kcat came out at 21.8 ± 2.6 s⁻¹ and the catalytic efficiency (kcat/Km) was 7530 ± 2500 M⁻¹ s⁻¹. In data set [1], the Km worked out at 600 ± 580 µM, the kcat was determined as 4.16 ± 0.60 s⁻¹ and the kcat/Km came to 6890 ± 5830 M⁻¹ s⁻¹.
For the substance “D-hydantoinase (dihydropyrimidinase) of G. stearothermophilus ATCC 31783 (Geobacillus stearothermophilus; F159A/W287A)”, in the data set with O=C1CCNC(=O)N1, the Km was 5610 ± 2320 µM, the kcat is 6.16 ± 1 s⁻¹ and the kcat/Km turned out to be 1100 ± 300 M⁻¹ s⁻¹. Also, in data set [1], the Km came out at 4300 ± 400 µM, the kcat came out at 12.5 ± 0.50 s⁻¹ and the kcat/Km turned out to be 2900 ± 170 M⁻¹ s⁻¹.
With “D-hydantoinase (dihydropyrimidinase) of G. stearothermophilus ATCC 31783 (Geobacillus stearothermophilus; I190A)”, in the data set with O=C1CCNC(=O)N1, the Km turned out to be 1120 ± 610 µM, the kcat came out at 7.99 ± 0.9 s⁻¹ and the kcat/Km amounted to 7090 ± 3200 M⁻¹ s⁻¹.
With “D-hydantoinase (dihydropyrimidinase) of G. stearothermophilus ATCC 31783 (Geobacillus stearothermophilus; W287A)”, in the data set on O=C1CCNC(=O)N1, the Km was 430 ± 130 µM, the kcat was 2.76 ± 0.17 s⁻¹ and the kcat/Km turned out to be 6530 ± 1830 M⁻¹ s⁻¹. In data set [1], the Km is 1660 ± 850 µM, the kcat was found to be 6.83 ± 0.97 s⁻¹ and the kcat/Km was found to be 4130 ± 1630 M⁻¹ s⁻¹.
